# Measured values from patent US20240010722A1 (published 2024).
# T1: murine MAdCAM on cells (mouse, UniProt Q61826 22-405)
# T1 construct: whole, on cells; also called CHO cells over-expressing murine MAdCAM; MAdCAM-1 expressing structures of mouse mesenteric lymph node
# T1 sequence (looked up): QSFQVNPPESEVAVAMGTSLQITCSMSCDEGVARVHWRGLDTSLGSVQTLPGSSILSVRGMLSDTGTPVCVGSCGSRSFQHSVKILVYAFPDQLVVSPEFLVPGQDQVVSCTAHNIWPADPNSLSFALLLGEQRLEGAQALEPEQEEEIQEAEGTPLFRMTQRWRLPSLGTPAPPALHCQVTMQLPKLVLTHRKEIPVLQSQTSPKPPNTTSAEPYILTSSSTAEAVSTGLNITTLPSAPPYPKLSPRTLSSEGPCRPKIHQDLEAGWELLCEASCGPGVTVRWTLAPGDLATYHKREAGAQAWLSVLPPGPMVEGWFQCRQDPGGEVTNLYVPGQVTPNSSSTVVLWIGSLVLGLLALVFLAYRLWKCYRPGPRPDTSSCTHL
# T2: human MAdCAM on CHO cells (human, UniProt Q13477 19-382)
# T2 construct: whole, on cells; also called CHO cells over-expressing human MAdCAM
# T2 sequence (looked up): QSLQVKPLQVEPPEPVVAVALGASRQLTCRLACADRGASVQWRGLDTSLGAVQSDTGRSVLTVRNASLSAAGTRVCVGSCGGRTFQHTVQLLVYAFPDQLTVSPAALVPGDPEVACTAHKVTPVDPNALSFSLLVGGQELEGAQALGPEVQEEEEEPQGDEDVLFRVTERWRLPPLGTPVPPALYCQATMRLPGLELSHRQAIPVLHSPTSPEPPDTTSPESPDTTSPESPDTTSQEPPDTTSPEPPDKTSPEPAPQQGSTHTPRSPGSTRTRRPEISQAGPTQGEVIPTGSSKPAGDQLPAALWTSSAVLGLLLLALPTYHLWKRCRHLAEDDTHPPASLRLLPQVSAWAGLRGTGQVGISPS
# B1: PMAB1 (bispecific antibody, human IgG1, kappa)
# heavy: EVQLLESGGGLVQPGGSLRLSCAASGFTFSNSDMSWVRQAPGKGLEWVSGITISGGSTYYADSVKGRFTISRDNSKNTLYLQMNSLRAEDTAVYYCARGRGGSGWLDYWGQGTLVTVSSASTKGPSVFPLAPSSKSTSGGTAALGCLVKDYFPEPVTVSWNSGALTSGVHTFPAVLQSSGLYSLSSVVTVPSSSLGTQTYICNVNHKPSNTKVDKKVEPKSCDKTHTCPPCPAPEAAGAPSVFLFPPKPKDTLMISRTPEVTCVVVDVSHEDPEVKFNWYVDGVEVHNAKTKPREEQYNSTYRVVSVLTVLHQDWLNGKEYKCKVSNKALPAPIEKTISKAKGQPREPQVYTLPPSREEMTKNQVSLTCLVKGFYPSDIAVEWESNGQPENNYKTTPPVLDSDGSFFLYSKLTVDKSRWQQGNVFSCSVMHEALHNHYTQKSLSLSPGGGGGSGGGGSGGGGSEVQLLESGGGLVQPGGSLRLSCAASGFTFSDFWMHWVRQAPGKGLEWISYISGDSGYTNYADSVKGRFTISRDNSKNTLYLQMNSLRAEDTAVYYCARDRPYYYYMDVWGKGTTVTVSSGGGGSGGGGSGGGGSGGGGSDIQMTQSPSSLSASVGDRVTITCRASQSVSRSLAWYQQKPGKAPKLLIYAASSLQSGVPSRFSGSGSGTDFTLTISSLQPEDFATYYCQQYKSYPVTFGQGTKVEIK
# light: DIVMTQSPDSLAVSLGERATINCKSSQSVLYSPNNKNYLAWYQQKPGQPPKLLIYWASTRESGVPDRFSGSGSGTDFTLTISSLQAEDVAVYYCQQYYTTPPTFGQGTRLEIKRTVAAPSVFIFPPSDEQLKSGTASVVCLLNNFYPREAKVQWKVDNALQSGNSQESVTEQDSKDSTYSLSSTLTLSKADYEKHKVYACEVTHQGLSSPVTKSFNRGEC
# notes: also called parental PMAB1
# B2: MIAB37 (antibody, V domains shown)
# VH: EVQLLESGGGLVQPGGSLRLSCAASGFTFDDYAMHWVRQAPGKGLEWVASITSSSAFIDYADSVKGRFTISRDNSKNTLYLQMNSLRAEDTAVYYCAQERVDWNSYFDLWGQGTLVTVSS
# VL: EIVMTQSPATLSVSPGERATLSCRASQGISNSYLAWYQQKPGQAPRLLIYGASTRATGIPARFSGSGSGTEFTLTISSLQSEDFAVYYCQQYYTYPPTFGQGTKVEIK
# notes: tested with human Fc
# Key:
# murine MAdCAM on cells [1] = target: T1, murine MAdCAM on cells; assay: confocal staining of mouse mesenteric lymph node sections, 1 and 10 nM
# Procedure: Fresh frozen mesenteric lymph node replicates from a 12-week BALB/c mouse were sectioned at 5 um, fixed with acetone, blocked with blockaid buffer solution for ten minutes room temperature and incubated with 1 and 10 nM titrations of test articles overnight at 4-degree Celsius. Tissues were then stained with anti-mouse MAdCAM and anti-human IgG Fc for two hours room temperature, DAPI counterstained and mounted and imaged with confocal microscopy. Clones including optimized MAdCAM (PMAB58 and PMAB18) co-localized with MAdCAM-1 expressing structures similarly to the parental clones (PMAB1 and PMAB57).
# [2] = target: T2, human MAdCAM on CHO cells; assay: flow cytometry on CHO cells
# Procedure: (§1) Parental CHO cells or CHO cells over-expressing human MAdCAM or murine MAdCAM were seeded onto wells of a 96 well plate (Corning) overnight. After washing 3 times with F12+10% FBS media, the plate was blocked for 1 hour with 5 uM whole human IgG. 10 nM parental MAdCAM-IL-2 M bi-specifics PRNT1 and PRNT2, or optimized variants MIAB12, MIAB13, MIAB25, MIAB26, MIAB37, MIAB204 and MIAB197 were captured for 1 hour. After washing 2 times with F12+10% FBS media, freshly-isolated human PBMCs were stimulated for 60 minutes with captured IL-2 MM bispecifics. Cells were then fixed for 10 minutes with BD Cytofix, permeabilized sequentially with BD Perm III, and BioLegend FOXP3 permeabilization buffer, blocked with human serum and stained for 30 minutes with antibodies against phospho-STAT5 A488, CD25 PE, FOXP3 AF647 and CD4 PerCP Cy5.5, CD3 BV421, CD56 BV785 and acquired on an Attune NXT with plate loader. […] Accordingly, PRNT1, PRNT2, MIAB1, MIAB12, MIAB13, MIAB25, MIAB26, MIAB37 MIAB204, and MIAB197 selectively activate Tregs.
# murine MAdCAM on cells [3] = target: T1, murine MAdCAM on cells; assay: flow cytometry on CHO cells
# Procedure: as §1
Binder,binding result (murine MAdCAM on cells [1]),binding result [2],binding result (murine MAdCAM on cells [3])
B1,binds,,
B2,,binds,binds
